Results from doi:10.1101/554881, “LRRK2-mediated phosphorylation of HDAC6 regulates HDAC6-cytoplasmic dynein interaction and aggresome formation” (bioRxiv, 2019).

Molecular target: T1, GST-tagged human LRRK2 wild type (amino acids 970-2527) (human, UniProt Q5S007 970-2527)
T1 construct: LRRK2, human, amino acids 970-2527; also called GST-LRRK2; GST-LRRK2 (aa 970-2527); source: bought: Invitrogen
Assay: pull-down; GST-LRRK2 (aa 970-2527; 1 µg) or GST (1 µg) incubated with His-HDAC6 (1 µg) in 250 µl RB100 buffer (25 mM HEPES pH 7.5, 100 mM KOAc, 10 mM MgCl2, 1 mM DTT, 0.05% Triton X-100, 10% glycerol) for 1 h at 4°C; captured on glutathione sepharose; immunoblot
Details: both partners purified

T1 sequence (Q5S007 970-2527): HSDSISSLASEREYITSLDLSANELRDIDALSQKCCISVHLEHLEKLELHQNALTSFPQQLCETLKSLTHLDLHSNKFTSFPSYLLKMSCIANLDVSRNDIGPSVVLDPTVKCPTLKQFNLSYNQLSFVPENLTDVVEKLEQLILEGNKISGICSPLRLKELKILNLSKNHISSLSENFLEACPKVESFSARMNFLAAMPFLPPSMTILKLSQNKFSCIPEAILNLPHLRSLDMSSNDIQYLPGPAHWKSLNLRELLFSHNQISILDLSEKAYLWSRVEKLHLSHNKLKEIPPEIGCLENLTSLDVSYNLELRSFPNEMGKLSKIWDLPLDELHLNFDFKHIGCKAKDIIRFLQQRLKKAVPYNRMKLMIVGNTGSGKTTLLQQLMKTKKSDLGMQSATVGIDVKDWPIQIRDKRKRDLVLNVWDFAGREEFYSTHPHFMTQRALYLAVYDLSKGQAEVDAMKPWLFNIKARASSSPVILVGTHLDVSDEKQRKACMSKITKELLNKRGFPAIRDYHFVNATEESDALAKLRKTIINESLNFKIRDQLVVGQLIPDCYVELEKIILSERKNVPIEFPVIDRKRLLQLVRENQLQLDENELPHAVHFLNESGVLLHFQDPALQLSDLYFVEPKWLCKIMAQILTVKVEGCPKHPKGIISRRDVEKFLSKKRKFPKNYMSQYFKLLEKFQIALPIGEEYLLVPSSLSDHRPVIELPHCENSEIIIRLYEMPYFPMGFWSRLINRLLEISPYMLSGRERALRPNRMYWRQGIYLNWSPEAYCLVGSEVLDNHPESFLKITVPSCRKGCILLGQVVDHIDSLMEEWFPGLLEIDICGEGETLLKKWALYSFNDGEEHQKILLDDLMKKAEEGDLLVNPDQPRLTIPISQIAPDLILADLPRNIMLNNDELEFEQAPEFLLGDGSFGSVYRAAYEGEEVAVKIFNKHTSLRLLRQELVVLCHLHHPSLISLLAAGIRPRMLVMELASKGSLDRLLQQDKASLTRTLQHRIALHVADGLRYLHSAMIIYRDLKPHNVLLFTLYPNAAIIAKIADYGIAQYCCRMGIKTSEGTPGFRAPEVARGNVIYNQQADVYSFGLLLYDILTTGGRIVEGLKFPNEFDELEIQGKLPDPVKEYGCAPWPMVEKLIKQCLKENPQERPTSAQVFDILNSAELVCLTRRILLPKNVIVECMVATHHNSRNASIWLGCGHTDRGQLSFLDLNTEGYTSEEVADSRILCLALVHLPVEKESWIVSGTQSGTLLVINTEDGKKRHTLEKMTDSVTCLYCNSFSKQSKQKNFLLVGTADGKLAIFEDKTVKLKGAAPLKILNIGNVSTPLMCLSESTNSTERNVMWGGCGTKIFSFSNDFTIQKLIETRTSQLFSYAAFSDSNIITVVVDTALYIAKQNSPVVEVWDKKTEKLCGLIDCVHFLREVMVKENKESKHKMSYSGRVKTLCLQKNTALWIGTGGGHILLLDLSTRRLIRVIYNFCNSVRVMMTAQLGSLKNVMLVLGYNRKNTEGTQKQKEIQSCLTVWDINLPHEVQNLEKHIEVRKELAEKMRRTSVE

binding result: binds
B1: recombinant His-tagged human HDAC6 protein (enzyme, UniProt Q9UBN7 1-1215, looked up)
chain: MTSTGQDSTTTRQRRSRQNPQSPPQDSSVTSKRNIKKGAVPRSIPNLAEVKKKGKMKKLGQAMEEDLIVGLQGMDLNLEAEALAGTGLVLDEQLNEFHCLWDDSFPEGPERLHAIKEQLIQEGLLDRCVSFQARFAEKEELMLVHSLEYIDLMETTQYMNEGELRVLADTYDSVYLHPNSYSCACLASGSVLRLVDAVLGAEIRNGMAIIRPPGHHAQHSLMDGYCMFNHVAVAARYAQQKHRIRRVLIVDWDVHHGQGTQFTFDQDPSVLYFSIHRYEQGRFWPHLKASNWSTTGFGQGQGYTINVPWNQVGMRDADYIAAFLHVLLPVALEFQPQLVLVAAGFDALQGDPKGEMAATPAGFAQLTHLLMGLAGGKLILSLEGGYNLRALAEGVSASLHTLLGDPCPMLESPGAPCRSAQASVSCALEALEPFWEVLVRSTETVERDNMEEDNVEESEEEGPWEPPVLPILTWPVLQSRTGLVYDQNMMNHCNLWDSHHPEVPQRILRIMCRLEELGLAGRCLTLTPRPATEAELLTCHSAEYVGHLRATEKMKTRELHRESSNFDSIYICPSTFACAQLATGAACRLVEAVLSGEVLNGAAVVRPPGHHAEQDAACGFCFFNSVAVAARHAQTISGHALRILIVDWDVHHGNGTQHMFEDDPSVLYVSLHRYDHGTFFPMGDEGASSQIGRAAGTGFTVNVAWNGPRMGDADYLAAWHRLVLPIAYEFNPELVLVSAGFDAARGDPLGGCQVSPEGYAHLTHLLMGLASGRIILILEGGYNLTSISESMAACTRSLLGDPPPLLTLPRPPLSGALASITETIQVHRRYWRSLRVMKVEDREGPSSSKLVTKKAPQPAKPRLAERMTTREKKVLEAGMGKVTSASFGEESTPGQTNSETAVVALTQDQPSEAATGGATLAQTISEAAIGGAMLGQTTSEEAVGGATPDQTTSEETVGGAILDQTTSEDAVGGATLGQTTSEEAVGGATLAQTTSEAAMEGATLDQTTSEEAPGGTELIQTPLASSTDHQTPPTSPVQGTTPQISPSTLIGSLRTLELGSESQGASESQAPGEENLLGEAAGGQDMADSMLMQGSRGLTDQAIFYAVTPLPWCPHLVAVCPIPAAGLDVTQPCGDCGTIQENWVCLSCYQVYCGRYINGHMLQHHGNSGHPLVLSYIDLSAWCYYCQAYVHHQALLDVKNIAHQNKFGEDMPHPH
notes: Histone deacetylase 6 (HDAC6), human, full length; also called His-HDAC6; full-length human His-HDAC6; source: bought: EMD Millipore
